Results from the supplement of paper PMC9233669.
Variants at the floor of the assay were thinned out.

Columns and labels:
[1] = tested on: biotinyl-Val-oxazolone; assay: self-aminoacylation, catalytic enhancement (BVO) (fold over background); higher = more active; k-Seq, kA / k0A0; sequences stand for … in GGGAAUGGAUCCACAUCUACGAAUUC…UUCACUGCAGACUUGACGAAGCUG
Procedure, shortened: (§1)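 Working in 50 μL HEPES/NaCl/KCl/MgCl2/CaCl2 buffer with 5% acetonitrile at pH 6.9–7.0, mutagenized RNA pools (0.43 μM; 21-nt variable region) were reacted with 2–1250 μM of each biotinyl-aminoacyl-oxazolone for 90 minutes at room temperature. Streptavidin capture followed, with quantification by triplicate qPCR and Illumina sequencing. Catalytic enhancement is reported as median kA over the uncatalyzed rate, the low-activity peak of a bimodal Gaussian fit to the data.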

[2] = tested on: biotinyl-Trp-oxazolone; assay: self-aminoacylation, catalytic enhancement (BWO) (fold over background); higher = more active; k-Seq, kA / k0A0; sequences stand for … in GGGAAUGGAUCCACAUCUACGAAUUC…UUCACUGCAGACUUGACGAAGCUG
Procedure, shortened: as §1

[3] = tested on: biotinyl-Phe-oxazolone; assay: self-aminoacylation, catalytic enhancement (BFO) (fold over background); higher = more active; k-Seq, kA / k0A0; sequences stand for … in GGGAAUGGAUCCACAUCUACGAAUUC…UUCACUGCAGACUUGACGAAGCUG
Procedure, shortened: as §1

[4] = tested on: biotinyl-Ile-oxazolone; assay: self-aminoacylation, catalytic enhancement (BIO) (fold over background); higher = more active; k-Seq, kA / k0A0; sequences stand for … in GGGAAUGGAUCCACAUCUACGAAUUC…UUCACUGCAGACUUGACGAAGCUG
Procedure, shortened: as §1

[5] = tested on: biotinyl-Leu-oxazolone; assay: self-aminoacylation, catalytic enhancement (BLO) (fold over background); higher = more active; k-Seq, kA / k0A0; sequences stand for … in GGGAAUGGAUCCACAUCUACGAAUUC…UUCACUGCAGACUUGACGAAGCUG
Procedure, shortened: as §1

[6] = tested on: biotinyl-Met-oxazolone; assay: self-aminoacylation, catalytic enhancement (BMO) (fold over background); higher = more active; k-Seq, kA / k0A0; sequences stand for … in GGGAAUGGAUCCACAUCUACGAAUUC…UUCACUGCAGACUUGACGAAGCUG
Procedure, shortened: as §1

Row | Sequence | self-aminoacylation [1] | self-aminoacylation [2] | self-aminoacylation [3] | self-aminoacylation [4] | self-aminoacylation [5] | self-aminoacylation [6]
1 | AAAAUUGCUAAUAGUCGCAAG [Fam3.1 aminoacylation ribozyme variant] | 1.73 | 3.04 | 2.58 | 1.93 | 1.78 | 1.33
2 | AAAUAUGCUAAUAGUCGCAAG [Fam3.1 aminoacylation ribozyme variant] | 1.55 | 2.25 | 2.27 | 2.03 | 1.44 | 1.45
3 | AAAUUUGCUAAUAGUCGCUAG [Fam3.1 aminoacylation ribozyme variant] | 1.58 | 2.84 | 2.81 | 1.73 | 1.38 | 1.22
4 | AACUGUGCUAAUAGUCGCAAG [Fam3.1 aminoacylation ribozyme variant] | 1.61 | 2.34 | 2.41 | 2.14 | 2.35 | 1.81
5 | AACUUUGCUAAUAGCCGCAAG [Fam3.1 aminoacylation ribozyme variant] | 1.93 | 2.14 | 2.77 | 2.25 | 2.23 | 2.28
6 | AACUUUGCUAAUAGUCGAAAG [Fam3.1 aminoacylation ribozyme variant] | 1.87 | 2.01 | 2.63 | 2.25 | 2.47 | 2.31
7 | AACUUUGCUAAUAGUCGCAAA [Fam3.1 aminoacylation ribozyme variant] | 2.31 | 2.36 | 13.6 | 2.8 | 3.39 | 3.32
8 | AACUUUGCUAAUAGUCGUAAG [Fam3.1 aminoacylation ribozyme variant] | 1.28 | 2.33 | 3.97 | 1.44 | 1.59 | 1.21
9 | AACUUUGCUCAUAGUCGCAAG [Fam3.1 aminoacylation ribozyme variant] |  | 2.34 | 10.8 | 2.01 | 2.47 | 2
10 | AAGCUUGUUAAUAGUCGCAAG [Fam3.1 aminoacylation ribozyme variant] |  | 2.3 | 3.63 | 2.21 | 2.38 | 2.26
11 | AAGUUCGCUAAUAGUCGCAAA [Fam3.1 aminoacylation ribozyme variant] |  | 2.76 | 4.42 | 2.49 | 2.63 | 2.01
12 | AAGUUCGCUAAUAGUCGCAAU [Fam3.1 aminoacylation ribozyme variant] | 2.03 | 2.44 | 3.19 |  |  | 2.1
13 | AAUACCCUGUUCAUCGAGUGA [Fam2.1 aminoacylation ribozyme variant] | 2.14 | 4.5 | 9.83 |  | 3.46 | 3
14 | AAUUUAGCUAAUAGUCGCAAG [Fam3.1 aminoacylation ribozyme variant] |  |  | 2.58 | 2.02 |  | 
15 | AAUUUUACUAAUAGUCGCAAG [Fam3.1 aminoacylation ribozyme variant] |  |  | 2.67 | 2.01 |  | 
16 | ACUACCCUCGUCAUCGAGUGA [Fam2.1 aminoacylation ribozyme variant] | 2.32 | 2.14 | 4.34 |  | 3.13 | 2.71
17 | AGGUUUGCCAAUAGUCGCAAG [Fam3.1 aminoacylation ribozyme variant] |  | 3.7 | 9.52 | 2.1 | 2.31 | 2.31
18 | AGUCACCUAGGUCAUCAGGUG [Fam2.2 aminoacylation ribozyme variant] | 2.09 |  | 8.84 |  | 2.1 | 
19 | AUUACCCUGUUCAUCGAGUGU [Fam2.1 aminoacylation ribozyme variant] | 2.02 | 3.95 |  |  | 2.1 | 2.84
20 | AUUAGCCUGGUCAUCGAGUGG [Fam2.1 aminoacylation ribozyme variant] |  | 3.05 | 2.98 |  | 2.35 | 2.81
21 | AUUCACCAAGGUCAUCGGGGG [Fam2.2 aminoacylation ribozyme variant] |  | 2.91 | 11.9 | 2.02 | 2.72 | 2.23
22 | AUUCACCCAGCUCAUCGGGUG [Fam2.2 aminoacylation ribozyme variant] | 2.19 |  | 6.9 | 2.73 | 2.43 | 2.49
23 | AUUCACCCAGGUCAUCGGGUU [Fam2.2 aminoacylation ribozyme variant] | 2.14 |  | 6.46 |  | 2.65 | 2.16
